Target: HisTmod (His-tagged recombinant AjTmod) (Apostichopus japonicus)
Test: MST; Monolith NT.115; His-tagged AjTmod labelled with NT-647-NHS (about 5 uM), 16 serial concentrations of the unlabelled partner; 50 mM Tris-HCl pH 8.0, 0.02% Tween 20; 25 °C; three repeats

For “GSTFliC fusion protein (GST-fused Vibrio splendidus AJ01 flagellin C) (natural protein)”, which Kd is on record?
Its Kd is 8.6 nM.

Reference: PMC9249833
